Data published in the supplement of paper PMC7877785.
± gives the uncertainty stated by the source.

Test: self-splicing fitness, log relative to wild type (ln ratio); higher = more splicing; Tetrahymena group I intron in knt gene, E. coli kanamycin selection, DiMSum; sequences stand for … in CUCUCU…GGAGGGAAAAGUUAUCAGGCAUGCACCUGGUAGCUAGUCUUUAAACCAAUAGAUUGCAUCGGUUUAAAAGGCAAGACCGUCAAAUUGCGGGAAAGGGGUCAACAGCCGUUCAGUACCAAGUCUCAGGGGAAACUUUGAGAUGGCCUUGCAAAGGGUAUGGUAAUAAGCUGACGGACAUGGUCCUAACCACGCAGCCAAGUCCUAAGUCAACAGAUCUUCUGUUGAUAUGGAUGCAGUUCACAGACUAAAUGUCGGUCGGGGAAGAUGUAUUCUUCUCAUAAGAUAUAGUCGGACCUCUCCUUAAUGGGAGCUAGCGGAUGAAGUGAUGCAACACUGGAGCCGCUGGGAACUAAUUUGUAUGCGAAAGUAUAUUGAUUAGUUUUGGAGUACUCGUGGUCG
Method in brief: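 Fitness was computed with DiMSum as the error-weighted combination of replicate fold changes, kanamycin versus none, each normalised to wild type. The library randomised all eight intron nucleotides of the P1ex region, with the intron placed in the knt kanamycin-resistance gene on pET-22b(+) in E. coli BL21(DE3). Six replicate transformations were grown overnight at 37°C or 30°C on LB agar with or without 25 μg/mL kanamycin, plus 100 μg/mL carbenicillin, 50 μM IPTG and 0.2% rhamnose. Pooled colonies were amplicon-sequenced on an Illumina HiSeq 2500.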

Sequence	self-splicing fitness (ln) (30 °C)	self-splicing fitness (ln) (37 °C)
AAUUAGCAAUAUUACGGGAG	-2.99 ± 0.19	-2.17 ± 0.16
AAUUAGCAAUAUUACGGGCC		-1.11 ± 0.49
AAUUAGCAAUAUUACGUAAC	-1.98 ± 0.16	-1.55 ± 0.29
AAUUAGCAAUAUUACGUCGC	-3.08 ± 0.27	-1.38 ± 0.21
AAUUAGCAAUAUUACGUCUA	-0.734 ± 0.087	-0.256 ± 0.093
AAUUAGCAAUAUUACGUCUC	-0.875 ± 0.12	-0.478 ± 0.16
AAUUAGCAAUAUUACGUGCA	-0.984 ± 0.096	-0.374 ± 0.12
AAUUAGCAAUAUUACGUUGG	-3.34 ± 0.17	-2.56 ± 0.16
ACAAAGCAAUAUUACGAAAU	-3.02 ± 0.13	-1.42 ± 0.12
ACAAAGCAAUAUUACGAAUG	-1.68 ± 0.057	-1.02 ± 0.085
ACAAAGCAAUAUUACGACAU	-0.488 ± 0.011	0.0402 ± 0.032
ACAAAGCAAUAUUACGAGCU	-0.866 ± 0.066	-0.624 ± 0.097
ACAAAGCAAUAUUACGAGGC	-2.57 ± 0.16	-1.59 ± 0.34
ACAAAGCAAUAUUACGCCAU	-3.96 ± 0.2	-2.24 ± 0.14
ACAAAGCAAUAUUACGCCUA	-1.61 ± 0.13	-1.32 ± 0.12
ACAAAGCAAUAUUACGCGCA	-0.72 ± 0.067	-0.569 ± 0.078
ACAAAGCAAUAUUACGCGUC	-4.08 ± 0.31	-2.09 ± 0.22
ACAAAGCAAUAUUACGCGUU	-3.19 ± 0.1	-2.69 ± 0.14
ACAAAGCAAUAUUACGCUAU	-2.38 ± 0.088	-0.848 ± 0.092
ACAAAGCAAUAUUACGCUCC	-1.29 ± 0.16	-0.526 ± 0.17
ACAAAGCAAUAUUACGCUCG	-0.887 ± 0.08	0.156 ± 0.12
ACAAAGCAAUAUUACGCUUC	-3.15 ± 0.14	-2.46 ± 0.16
ACAAAGCAAUAUUACGGAUU	-2.49 ± 0.085	-0.946 ± 0.081
ACAAAGCAAUAUUACGGCAA	-0.0281 ± 0.08	-0.252 ± 0.1
